In patent US20220073608A1 (JIANGSU HUAIYU PHARMACEUTICAL, published 2022):
Residue numbers refer to the chain shown, from its start.

Columns and labels:
[1] = target: T1, biotinylated hSEMA4D ECD-His (human, UniProt Q92854 22-734, biotinylated with Biotin-X-X-NHS at a molar ratio of 8:1; sites not stated); test: FACS, blocking of biotinylated hSEMA4D ECD-His binding to 293F hPlexin B1 cells; Ab 0.00427 nM
T1 construct: also called biotinylated immunogen; not shown: His tag of the pCP vector
T1 sequence: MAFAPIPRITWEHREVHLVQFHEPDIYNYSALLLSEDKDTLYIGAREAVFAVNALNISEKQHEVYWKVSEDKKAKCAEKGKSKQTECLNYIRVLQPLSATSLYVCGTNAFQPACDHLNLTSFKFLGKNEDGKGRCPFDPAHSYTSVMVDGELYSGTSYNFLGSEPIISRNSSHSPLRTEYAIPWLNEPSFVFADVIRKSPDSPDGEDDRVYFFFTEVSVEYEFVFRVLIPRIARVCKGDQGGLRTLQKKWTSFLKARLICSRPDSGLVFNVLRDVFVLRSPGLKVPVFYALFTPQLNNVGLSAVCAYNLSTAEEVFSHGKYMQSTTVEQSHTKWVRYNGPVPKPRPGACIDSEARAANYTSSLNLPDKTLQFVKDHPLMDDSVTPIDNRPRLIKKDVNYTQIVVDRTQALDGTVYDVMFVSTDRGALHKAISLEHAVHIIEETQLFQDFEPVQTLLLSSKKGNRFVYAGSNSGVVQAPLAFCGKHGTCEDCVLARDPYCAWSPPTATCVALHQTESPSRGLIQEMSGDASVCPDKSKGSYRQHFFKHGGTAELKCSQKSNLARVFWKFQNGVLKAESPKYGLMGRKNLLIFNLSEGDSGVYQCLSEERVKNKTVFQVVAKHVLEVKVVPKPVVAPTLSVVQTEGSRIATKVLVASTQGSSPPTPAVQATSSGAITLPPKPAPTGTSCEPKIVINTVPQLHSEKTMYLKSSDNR
Method: (§1) The medium was aspirated, the cells were washed once with PBS buffer (purchased from Invitrogen), and then treated with cell dissociation fluid (TrypLE™ Express Enzyme, purchased from Life technology), and the cells were collected. After the cells counted, the cells were washed once with PBS phosphate buffer, and diluted to 1×10⁶ cells per milliliter, and added to the 96-well FACS reaction plate as 100 μL per well. 2% (w/w) fetal calf serum was added to PBS phosphate buffer as FACS buffer, with which the cells were washed once by centrifugation at 2000 rpm 4° C. Meanwhile, the purified leading antibody and biotinylated hSEMA4D ECD-His were mixed and incubated on ice for 30 minutes. Then 100 μL of the mixture was added to each well and the plate was incubated on ice for 1 hour. […] Cells were washed 2 times by centrifugation with FACS buffer. The cells were suspended with 200 μL of FACS buffer, and FACS (FACS Verse, purchased from BD) was used to detect and analyze the results. The results are shown in FIGS. 11A-11B and Tables 20-21.

[2] = target: T1, biotinylated hSEMA4D ECD-His; test: FACS, blocking of biotinylated hSEMA4D ECD-His binding to 293F hPlexin B1 cells; Ab 0.534 nM
Method: as §1

[3] = target: T1, biotinylated hSEMA4D ECD-His; test: FACS, blocking of biotinylated hSEMA4D ECD-His binding to 293F hPlexin B1 cells; Ab 333 nM
Method: as §1

[4] = target: T1, biotinylated hSEMA4D ECD-His; test: FACS, blocking of biotinylated hSEMA4D ECD-His binding to 293F hPlexin B1 cells; Ab 0.0213 nM
Method: as §1

[5] = target: T1, biotinylated hSEMA4D ECD-His; test: FACS, blocking of biotinylated hSEMA4D ECD-His binding to 293F hPlexin B1 cells; Ab 0.107 nM
Method: as §1

[6] = target: T1, biotinylated hSEMA4D ECD-His; test: FACS, blocking of biotinylated hSEMA4D ECD-His binding to 293F hPlexin B1 cells; Ab 66.7 nM
Method: as §1

[7] = target: T1, biotinylated hSEMA4D ECD-His; test: FACS, blocking of biotinylated hSEMA4D ECD-His binding to 293F hPlexin B1 cells; Ab 2.67 nM
Method: as §1

[8] = target: T1, biotinylated hSEMA4D ECD-His; test: FACS, blocking of biotinylated hSEMA4D ECD-His binding to 293F hPlexin B1 cells; Ab 13.3 nM
Method: as §1

B1: 32C8F10 (antibody, V domains shown)
VH: EVQLQQSGAELVRPGASVKLSCTASGFNIKDEYIHWVKQRPEQGLEWIGWIDPANGHTEYASRFQAKATITADTSSNTAYLQLSSLTSEDTAVYYCTTGDYDGFAYWGQGTLVTVST
VL: QIVLTQSPAIMSASPGEKVTISCSARSSVSYMYWYQQKPGSSPKPWIYRTSNLASGVPARFSGSGSGTSYSLTISSMEAEDAATYYCQHYHTYPYTFGGGTKLEIK
notes: Mouse monoclonal antibody purified from hybridoma supernatant on protein A
MFI (residual ligand binding) [1]: 471 | MFI (residual ligand binding) [2]: 420 | MFI (residual ligand binding) [3]: 85.1 | MFI (residual ligand binding) [4]: 463 | MFI (residual ligand binding) [5]: 454 | MFI (residual ligand binding) [6]: 55.5 | MFI (residual ligand binding) [7]: 333 | MFI (residual ligand binding) [8]: 204

B2: 31G10C5 (antibody, V domains shown)
VH: B1 VH with E32D, T58I, R63N, A105T
VL: B1 VL
notes: as for B1
MFI (residual ligand binding) [1]: 470 | MFI (residual ligand binding) [2]: 427 | MFI (residual ligand binding) [3]: 45.4 | MFI (residual ligand binding) [4]: 466 | MFI (residual ligand binding) [5]: 460 | MFI (residual ligand binding) [6]: 54.2 | MFI (residual ligand binding) [7]: 334 | MFI (residual ligand binding) [8]: 209

B3: 31C11G2 (antibody, V domains shown)
VH: B1 VH with A105V
VL: B1 VL with S22F
notes: as for B1
MFI (residual ligand binding) [1]: 544 | MFI (residual ligand binding) [2]: 513 | MFI (residual ligand binding) [3]: 50.8 | MFI (residual ligand binding) [4]: 547 | MFI (residual ligand binding) [5]: 530 | MFI (residual ligand binding) [6]: 54.2 | MFI (residual ligand binding) [7]: 415 | MFI (residual ligand binding) [8]: 266
